# Non-standard residues stand in square brackets, D forms with d. No end group written: not given here. *: point of attachment. Me2 = dimethyl-lysine (dimethyl-epsilon-NH2-L-lysine); pS = N[C@@H](COP(=O)(O)O)C(=O)O; Orn = NCCC[C@H](N)C(=O)O; For = O=C*
# Assays:
# Format in all cases: biochemical
# histone H1 = assay: Proteolytic digestion of histone H1
# Method: Here the inventors determined whether biotin release is mediated by proteolytic digestion of histones. One milligram of histone H1 was dissolved in 100 μl of 20 mM sodium acetate [pH 4.5]. 0.4 microliters of histone solution was mixed with 7.1 μl of nuclear extract containing 20 μg of protein; samples were incubated at 37° C. for 20 min. The following controls were tested: histones incubated without nuclear extract, and histones incubated with 2.5 microliter trypsin [with or without 20 mM of the trypsin inhibitor, phenylmethylsulphonylfluoride (PMSF)]. Reactions were terminated by heating the samples with equal volume of loading buffer at 72° C. for 10 min. Proteins were resolved using 4-12% Bis-Tris gels (Invitrogen, Carlsbad, Calif.) as described (Stanley et al., 2001) and were visualized using coomassie blue.
# biotinidase [1] = target: T1, biotinidase (Homo sapiens, UniProt P43251); assay: Enzymatic biotinylation of synthetic histone H4 peptides by biotinidase; conditions: for enzymatic biotinylation by biotinidase, peptide-bound biotin probed with streptavidin peroxidase: human plasma as source of biotinidase, biocytin, 37° C., 45 min
# T1 construct: 60 μL of human plasma; from tissue; host or cells: human plasma
# T1 sequence (P43251 22-523): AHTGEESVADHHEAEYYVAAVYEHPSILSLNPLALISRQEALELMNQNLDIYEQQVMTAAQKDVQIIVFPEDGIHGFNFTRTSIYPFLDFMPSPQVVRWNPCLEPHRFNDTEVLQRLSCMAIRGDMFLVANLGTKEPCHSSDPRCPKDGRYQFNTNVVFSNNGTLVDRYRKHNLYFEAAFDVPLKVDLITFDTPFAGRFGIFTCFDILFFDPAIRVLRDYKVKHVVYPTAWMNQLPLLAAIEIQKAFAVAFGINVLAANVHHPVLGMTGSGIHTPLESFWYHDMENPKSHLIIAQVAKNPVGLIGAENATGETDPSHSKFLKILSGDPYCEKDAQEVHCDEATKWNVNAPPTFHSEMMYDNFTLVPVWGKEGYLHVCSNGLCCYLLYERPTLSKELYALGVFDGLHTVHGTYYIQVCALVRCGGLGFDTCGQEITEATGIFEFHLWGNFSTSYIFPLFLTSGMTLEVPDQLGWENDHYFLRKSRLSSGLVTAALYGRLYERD
# Excerpt: It has been proposed that the following catalytic sequence leads to biotinylation in histones (Hymes et al., 1995; Hyme and Wolf, 1999). First, biocytin is cleaved by biotinidase to form an intermediate, cysteine-bound biotin. Second, the biotinyl moiety from the cysteine residue is transferred to the ε-amino group of lysines in histones. In the present study, synthetic peptides were biotinylated enzymatically using human plasma (as source of biotinidase) and biocytin (as source of biotin) as described previously (Hymes et al., 1995). Peptide concentrations in stock solutions were adjusted to 50 mg/L; 20 μL of peptide solution was mixed with 1.88 mL of 50 mmol/L Tris (pH 8.0), 40 μL of 0.75 mmol/L biocytin and 60 μL of human plasma. Samples were incubated […] at 37° C. for 45 min and stored at −70° C. unless stated otherwise.
# After enzymatic biotinylation, peptides were electrophoresed using 16% tricine polyacrylamide gels according to the manufacturer's instructions (Invitrogen, Carlsbad, Calif.). Peptides were electroblotted onto polyvinylidene fluoride membranes (Millipore, Bedford, Mass.), which were blocked with 50 mL of 30 g/L BSA. Peptide-bound biotin was probed with streptavidin peroxidase (Stanley et al., 2001).
# biotinidase [2] = target: T1, biotinidase; assay: Enzymatic biotinylation of synthetic histone H2A and H2A.X peptides by biotinidase; conditions: human plasma as source of biotinidase, 75 μmol/L biocytin, pH 8.0, 37° C., up to 45 minutes
# Excerpt: In Examples described above, the inventors developed a procedure to identify amino acid residues in histones that are targets for biotinylation. […] Amino acid substitutions (e.g., lysine-to-alanine substitutions) in synthetic peptides are used to corroborate identification of biotinylation sites. In addition, amino acid modifications (e.g., acetylation of lysines) in peptides can be used to investigate the cross-talk between biotinylation of histones and other known modifications of histones.
# Peptides from both the N- and C-terminal regions of histone H2A and H2A.X were included in the analysis of biotinylation sites. […] Reactions were quenched by adding an equal volume of Tricine gel loading buffer (Invitrogen, Carlsbad, Calif.).
# biotinidase [3] = target: T1, biotinidase; assay: Enzymatic biotinylation of synthetic histone H3 peptides by biotinidase; conditions: biotinidase and biocytin, 45 min
compound,measurement,setting,value
"O=S(=O)(F)Cc1ccccc1 [PMSF, phenylmethylsulphonylfluoride]",degradation of histone H1 by trypsin in the presence of the inhibitor,histone H1; 20 mM,prevented
"15: histone H4 positions 6-15, glutamate in position 8 [Peptide 15]","enzymatic biotinylation by biotinidase, peptide-bound biotin probed with streptavidin peroxidase",biotinidase [1],not detectable
"2: histone H4 positions 6-15, alanine in position 8 (Ac-GGAGLGKGGA) [Peptide 2]","enzymatic biotinylation by biotinidase, peptide-bound biotin probed with streptavidin peroxidase",biotinidase [1],decreased substantially
"8: histone H4 positions 6-15, Dme-K in position 12 (Ac-GGKGLGK(Me2)GGA) [Peptide 8]","enzymatic biotinylation by biotinidase, peptide-bound biotin probed with streptavidin peroxidase",biotinidase [1],decreased substantially
"GGKGLGKGGA (Ac-GGKGLGKGGA) [Peptide 1, amino acids 6 through 15 in histone H4, native control]","enzymatic biotinylation by biotinidase, peptide-bound biotin probed with streptavidin peroxidase",biotinidase [1],efficiently biotinylated
"12: histone H4 positions 6-15, arginine in position 8 (Ac-GGRGLGKGGA) [Peptide 12]","enzymatic biotinylation by biotinidase, peptide-bound biotin probed with streptavidin peroxidase",biotinidase [1],decreased substantially
NC(=O)NCCC[C@H](N)C(=O)O [citrulline],"enzymatic biotinylation by biotinidase, peptide-bound biotin probed with streptavidin peroxidase",biotinidase [2],good targets for biotinylation
same,"enzymatic biotinylation by biotinidase, peptide-bound biotin probed with streptavidin-peroxidase",biotinidase [3],relatively poor target for biotinylation
"6: histone H4 positions 6-15, Ac-K in position 12 (Ac-GGKGLGK(Ac)GGA) [Peptide 6]","enzymatic biotinylation by biotinidase, peptide-bound biotin probed with streptavidin peroxidase",biotinidase [1],decreased biotinylation of the peptide
trypsin,degradation of histone H1 by gel electrophoresis,histone H1; 37° C. for 20 min,degraded completely
"K23A18-25: histone H3 amino acids 18-25, K23 substituted with alanine (KQLATAAA) [Peptide K23A18-25]","enzymatic biotinylation by biotinidase, peptide-bound biotin probed with streptavidin-peroxidase",biotinidase [3],heavily biotinylated
"14: histone H4 positions 6-15, arginine in positions 8 and 12 (Ac-GGRGLGRGGA) [Peptide 14]","enzymatic biotinylation by biotinidase, peptide-bound biotin probed with streptavidin peroxidase",biotinidase [1],not detected
"SGRGKGGKGLGKGGAKRHR [SEQ ID NO:7, N-terminal 19 amino acids of histone H4]",time at which abundance of biotinylated peptide reached a plateau,biotinidase [1]; incubated with plasma and biocytin for 0 to 60 min,20 to 60 min
"N16-23: histone H3 amino acids 16-23, including K18 and K23 (PRKQLATK; UniProt P68431 17-24, looked up, fragment) [Peptide N16-23]","enzymatic biotinylation by biotinidase, peptide-bound biotin probed with streptavidin-peroxidase",biotinidase [3],moderate target for biotinylation
"K23A16-23: histone H3 amino acids 16 to 23, K23 substituted with alanine (PRKQLATA) [Peptide K23A16-23]","enzymatic biotinylation by biotinidase, peptide-bound biotin probed with streptavidin-peroxidase",biotinidase [3],weak
"3: histone H4 positions 6-15, alanine in position 12 (Ac-GGKGLGAGGA) [Peptide 3]","enzymatic biotinylation by biotinidase, peptide-bound biotin probed with streptavidin peroxidase",biotinidase [1],decreased substantially
"7: histone H4 positions 6-15, Dme-K in position 8 (Ac-GGK(Me2)GLGKGGA) [Peptide 7]","enzymatic biotinylation by biotinidase, peptide-bound biotin probed with streptavidin peroxidase",biotinidase [1],decreased substantially
"19: histone H4 positions 6-15, glutamine in positions 8 and 12 (Ac-GGQGLGQGGA) [Peptide 19]","enzymatic biotinylation by biotinidase, peptide-bound biotin probed with streptavidin peroxidase",biotinidase [1],no enzymatic biotinylation was detectable
TAOKSTGG (TA[Orn]KSTGG) [Peptide R8O6-13],"enzymatic biotinylation by biotinidase, peptide-bound biotin probed with streptavidin-peroxidase",biotinidase [3],increased considerably
"K18A18-25: histone H3 amino acids 18-25, K18 substituted with alanine (AQLATKAA) [Peptide K18A18-25]","enzymatic biotinylation by biotinidase, peptide-bound biotin probed with streptavidin-peroxidase",biotinidase [3],barely detectable
"16: histone H4 positions 6-15, glutamate in position 12 [Peptide 16]","enzymatic biotinylation by biotinidase, peptide-bound biotin probed with streptavidin peroxidase",biotinidase [1],not detectable
"13: histone H4 positions 6-15, arginine in position 12 (Ac-GGKGLGRGGA) [Peptide 13]","enzymatic biotinylation by biotinidase, peptide-bound biotin probed with streptavidin peroxidase",biotinidase [1],decreased moderately
"18: histone H4 positions 6-15, glutamine in position 12 (Ac-GGKGLGQGGA) [Peptide 18]","enzymatic biotinylation by biotinidase, peptide-bound biotin probed with streptavidin peroxidase",biotinidase [1],decreased compared to the native peptide
"K18A16-23: histone H3 amino acids 16 to 23, K18 substituted with alanine (PRAQLATK) [Peptide K18A16-23]","enzymatic biotinylation by biotinidase, peptide-bound biotin probed with streptavidin-peroxidase",biotinidase [3],weak
"4: histone H4 positions 6-15, alanine in positions 8 and 12 (Ac-GGAGLGAGGA) [Peptide 4]","enzymatic biotinylation by biotinidase, peptide-bound biotin probed with streptavidin peroxidase",biotinidase [1],did not undergo biotinylation
"TARKS(p)TGG (TARK[pS]TGG) [S10S(p)6-13, histone H3 6-13, phosphorylation of S10]","enzymatic biotinylation by biotinidase, peptide-bound biotin probed with streptavidin-peroxidase",biotinidase [3],poor target for biotinylation
"TAAKSTGG [Peptide R8A6-13, histone H3 6-13, R8 substituted with alanine]","enzymatic biotinylation by biotinidase, peptide-bound biotin probed with streptavidin-peroxidase",biotinidase [3],increased considerably
"N9-16: histone H3 amino acids 9-16, including K9 and K14 (KSTGGKAP; UniProt P68431 10-17, looked up, fragment) [Peptide N9-16]","enzymatic biotinylation by biotinidase, peptide-bound biotin probed with streptavidin-peroxidase",biotinidase [3],relatively poor targets for biotinylation
NCCC[C@H](N)C(=O)O [ornithine],"enzymatic biotinylation by biotinidase, peptide-bound biotin probed with streptavidin-peroxidase",biotinidase [3],not biotinylated
"5: histone H4 positions 6-15, Ac-K in position 8 (Ac-GGK(Ac)GLGKGGA) [Peptide 5]","enzymatic biotinylation by biotinidase, peptide-bound biotin probed with streptavidin peroxidase",biotinidase [1],barely detectable
"20: histone H4 positions 6-15, D-lysine in position 12 (Ac-GGKGLG[dK]GGA) [Peptide 20]","enzymatic biotinylation by biotinidase, peptide-bound biotin probed with streptavidin peroxidase",biotinidase [1],decreased only moderately
"9: histone H4 positions 6-15, For-K in position 12 (Ac-GGKGLGK(For)GGA) [Peptide 9]","enzymatic biotinylation by biotinidase, peptide-bound biotin probed with streptavidin peroxidase",biotinidase [1],decreased compared to the native peptide
"17: histone H4 positions 6-15, glutamine in position 8 (Ac-GGQGLGKGGA) [Peptide 17]","enzymatic biotinylation by biotinidase, peptide-bound biotin probed with streptavidin peroxidase",biotinidase [1],decreased compared to the native peptide
"TARKSTGG [Peptide N6-13, native unmodified peptide, position 6-13 in histone H3]","enzymatic biotinylation by biotinidase, peptide-bound biotin probed with streptavidin-peroxidase",biotinidase [3],moderate target for biotinylation

# Source: patent US20060286611A1, “Antibodies against biotinylated histones and related proteins and assays related thereto” (Board of Regents of University of Nebraska, priority 2005, published 2006)
